Stoichiometry N and Kd data for 4 substances are collected here from paper PMC6914384.

In assay [1] the target is pSTAT1ΔNC (136-713), Tyr701-phosphorylated (UniProt P42224). As to the kind of experiment: SEC.
For assay [2], the target named is pIRF3 (IRF3 1-427 phosphorylated in vitro by TBK1) (UniProt Q14653). As to the kind of experiment: SEC. (In general: In gel filtration, larger molecules generally elute earlier.)
For assay [3], the target named is p300 BRP module (bromodomain-RING-PHD), residues 1048-1282 (UniProt Q09472). As to the kind of experiment: ITC. For orientation: In ITC the heat of successive injections is recorded.
Assay [4] concerns the target pSTAT1ΔN (136-748), Tyr701-phosphorylated (UniProt P42224). As to the kind of experiment: SEC.

p300 BRP module (bromodomain-RING-PHD), residues 1048-1282, sequence (Q09472 1048-1282): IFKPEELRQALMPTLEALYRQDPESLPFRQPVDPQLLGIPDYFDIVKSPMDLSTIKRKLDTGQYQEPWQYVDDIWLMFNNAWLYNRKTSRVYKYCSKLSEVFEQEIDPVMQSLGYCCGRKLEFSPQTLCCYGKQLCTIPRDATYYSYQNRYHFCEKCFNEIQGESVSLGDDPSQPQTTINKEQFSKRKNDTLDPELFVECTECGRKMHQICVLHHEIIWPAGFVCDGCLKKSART

With “pSTAT1ΔNC (136-713), Tyr701-phosphorylated (from UniProt P42224 136-713) (domain or fragment)”, the stoichiometry N in assay [1] worked out at 2.

In turn, “pIRF3 (IRF3 1-427 phosphorylated in vitro by TBK1) (from UniProt Q14653 1-427) (natural protein)” had a stoichiometry N in assay [2] of 2. On to H4 K8acK12ac (4-24) peptide, for which, in assay [3], the Kd amounted to 90 µM and the stoichiometry N worked out at 1.01. “pSTAT1ΔN (136-748), Tyr701-phosphorylated (from UniProt P42224 136-748) (domain or fragment)” yielded a stoichiometry N in assay [4] of 2.

Broadly, the stoichiometry N is a count of units in the complex or per binding partner. In general, Kd refers to the equilibrium constant for the complex coming apart. Higher therefore signals weaker binding.
